# Laboratory results published in paper PMC7614228, “Structural maturation of SYCP1-mediated meiotic chromosome synapsis by SYCE3” (Nature structural & molecular biology, 2023).
# Where “and” joins values, the source holds several entries; their conditions need not be identical. Equal values may be shown once.
# B1: SYCP1αNcore (amino-acids 206-362) (domain or fragment, human, UniProt Q15431 206-362, looked up)
# chain: ETRQVYMDLNNNIEKMITAFEELRVQAENSRLEMHFKLKEDYEKIQHLEQEYKKEINDKEKQVSLLLIQITEKENKMKDLTFLLEESRDKVNQLEEKTKLQSENLKQSIEKQHHLTKELEDIKVSLQRSVSTQKALEEDLQIATKTICQLTEEKETQ
# notes: SYCP1 αNcore (tetrameric core), amino-acids 206-362; Tetramer alone (SEC-MALS); two chains in the 2:1 complex with SYCE3; also called SYCP1 tetrameric core; source: E. coli BL21(DE3), purified alone or co-expressed and co-purified with SYCE3 (amylose, TEV, anion exchange, SEC); not shown: MBP, N-terminal, cleaved
# B2: MBP-SYCP1αNcore (amino-acids 206-362) (domain or fragment, human, UniProt Q15431 206-362, looked up)
# chain: ETRQVYMDLNNNIEKMITAFEELRVQAENSRLEMHFKLKEDYEKIQHLEQEYKKEINDKEKQVSLLLIQITEKENKMKDLTFLLEESRDKVNQLEEKTKLQSENLKQSIEKQHHLTKELEDIKVSLQRSVSTQKALEEDLQIATKTICQLTEEKETQ
# notes: SYCP1 αNcore (tetrameric core), amino-acids 206-362; source: E. coli BL21(DE3), co-expressed with SYCE3 constructs; in lysate (amylose pull-down) or co-purified (amylose, anion exchange, SEC); not shown: MBP, N-terminal, kept
# B3: SYCP1αN (amino-acids 101-362) (domain or fragment, human, UniProt Q15431 101-362, looked up)
# chain: GLSRVYSKLYKEAEKIKKWKVSTEAELRQKESKLQENRKIIEAQRKAIQELQFGNEKVSLKLEEGIQENKDLIKENNATRHLCNLLKETCARSAEKTKKYEYEREETRQVYMDLNNNIEKMITAFEELRVQAENSRLEMHFKLKEDYEKIQHLEQEYKKEINDKEKQVSLLLIQITEKENKMKDLTFLLEESRDKVNQLEEKTKLQSENLKQSIEKQHHLTKELEDIKVSLQRSVSTQKALEEDLQIATKTICQLTEEKETQ
# notes: SYCP1 α-helical N-terminal region, amino-acids 101-362; source: E. coli BL21(DE3), purified, alone or co-expressed and co-purified with SYCE3
# B4: MBP-SYCP1αN (domain or fragment, human, UniProt Q15431 101-362, looked up)
# chain: GLSRVYSKLYKEAEKIKKWKVSTEAELRQKESKLQENRKIIEAQRKAIQELQFGNEKVSLKLEEGIQENKDLIKENNATRHLCNLLKETCARSAEKTKKYEYEREETRQVYMDLNNNIEKMITAFEELRVQAENSRLEMHFKLKEDYEKIQHLEQEYKKEINDKEKQVSLLLIQITEKENKMKDLTFLLEESRDKVNQLEEKTKLQSENLKQSIEKQHHLTKELEDIKVSLQRSVSTQKALEEDLQIATKTICQLTEEKETQ
# notes: SYCP1αN, amino-acids 101-362; source: E. coli BL21(DE3), co-purified with His-SYCE3
# Tests used:
# [1] = target: B1; experiment: SEC-MALS; co-expressed and co-purified SYCP1-SYCE3 complexes, 5-20 mg/ml; 20 mM Tris pH 8.0, 150 mM KCl, 2 mM DTT (Superose 6 Increase for MBP-SYCP1αN-His-SYCE3); settings: both partners purified
# [2] = target: B2; experiment: as above; settings: both partners purified
# MBP-SYCP1αN = target: B4; experiment: as above; settings: both partners purified
# [3] = target: B1; experiment: ITC; SYCE3 (400 μM) injected into SYCP1αNcore (70 μM) at 30°C; 25 mM Tris pH 8.0, 250 mM KCl, 2 mM DTT; apparent affinity; settings: both partners purified
# [4] = target: B3; experiment: SEC-MALS; co-expressed and co-purified SYCP1-SYCE3 complexes, 5-20 mg/ml; 20 mM Tris pH 8.0, 150 mM KCl, 2 mM DTT (Superose 6 Increase for MBP-SYCP1αN-His-SYCE3); settings: both partners purified
# [5] = target: the molecule itself; experiment: SEC-MALS; proteins in isolation, 5-20 mg/ml; Superdex 200 Increase, 20 mM Tris pH 8.0, 150 mM KCl, 2 mM DTT
# [6] = target: the molecule itself; experiment: SEC-MALS; co-expressed and co-purified SYCP1-SYCE3 complexes, 5-20 mg/ml; 20 mM Tris pH 8.0, 150 mM KCl, 2 mM DTT (Superose 6 Increase for MBP-SYCP1αN-His-SYCE3)
stoichiometry N [1],Binder,stoichiometry N [6],further results
2 SYCP1 chains per SYCE3 chain,"SYCE3 P53Q (natural protein, human, UniProt A1L190 1-88, looked up, SYCE3 with P53Q; source: E. coli BL21(DE3), co-purified with SYCP1αNcore; not shown: His or His-MBP, N-terminal, cleaved) MDDADPEERNYDNMLKMLSDLNKDLEKLLEEMEKISVQATWMAYDMVVMRTNQTLAESMRRLEDAFVNCKEEMEKNWQELLHETKQRL",,
2 SYCP1 chains per SYCE3 chain,"MBP-SYCE3 (natural protein, human, UniProt A1L190 1-88, looked up, SYCE3 without a stated truncation; source: E. coli BL21(DE3), co-purified with SYCP1αNcore constructs) MDDADPEERNYDNMLKMLSDLNKDLEKLLEEMEKISVQATWMAYDMVVMRTNPTLAESMRRLEDAFVNCKEEMEKNWQELLHETKQRL",,stoichiometry N [2]: 2 SYCP1 chains per SYCE3 chain
,"His-SYCE3 (full-length, amino-acids 1-88) (natural protein, human, UniProt A1L190 1-88, looked up, SYCE3, full-length = amino-acids 1-88; source: E. coli BL21(DE3), co-expressed with MBP fusions; in lysate (amylose pull-down) or co-purified; not shown: His, N-terminal, kept) MDDADPEERNYDNMLKMLSDLNKDLEKLLEEMEKISVQATWMAYDMVVMRTNPTLAESMRRLEDAFVNCKEEMEKNWQELLHETKQRL",,stoichiometry N [2]: 2 SYCP1 chains per SYCE3 chain; stoichiometry N (MBP-SYCP1αN): 2 SYCP1 chains per SYCE3 chain (2:1) and 4 SYCP1 chains with 2 SYCE3 chains (4:2)
2 SYCP1 chains per SYCE3 chain,"SYCE3 W41E Y44E (natural protein, human, UniProt A1L190 1-88, looked up, SYCE3 with W41E Y44E; also called SYCE3 WY; WY mutant; source: E. coli BL21(DE3), purified, alone or co-purified with SYCP1 constructs; not shown: His or His-MBP, N-terminal, cleaved) MDDADPEERNYDNMLKMLSDLNKDLEKLLEEMEKISVQATEMAEDMVVMRTNPTLAESMRRLEDAFVNCKEEMEKNWQELLHETKQRL",,Kd [3]: 16 nM; apparent KD of one replicate [3]: 10 nM and 22 nM and 16 nM; stoichiometry N [4]: 2 SYCP1 chains per SYCE3 chain
,B1,2 SYCP1 chains in the complex with SYCE3,stoichiometry N [5]: 4
,B2,2 SYCP1 chains in the complex with SYCE3,
,"SYCP1αN ΔNtip (domain or fragment, human, UniProt Q15431 112-362, looked up, SYCP1αN (101-362) with the αNtip (101-111) deleted; also called SYCP1 ΔNtip; source: E. coli BL21(DE3), co-purified with SYCE3) EAEKIKKWKVSTEAELRQKESKLQENRKIIEAQRKAIQELQFGNEKVSLKLEEGIQENKDLIKENNATRHLCNLLKETCARSAEKTKKYEYEREETRQVYMDLNNNIEKMITAFEELRVQAENSRLEMHFKLKEDYEKIQHLEQEYKKEINDKEKQVSLLLIQITEKENKMKDLTFLLEESRDKVNQLEEKTKLQSENLKQSIEKQHHLTKELEDIKVSLQRSVSTQKALEEDLQIATKTICQLTEEKETQ",2 SYCP1 chains in the complex with SYCE3,
,"SYCP1 αCore-ΔNtip (amino-acids 112-783) (domain or fragment, human, UniProt Q15431 112-783, looked up, SYCP1 α-helical core without the αNtip, amino-acids 112-783; also called SYCP1's full α-helical core, in which αNtips were deleted; source: E. coli BL21(DE3), purified, alone or in complex with SYCE3) EAEKIKKWKVSTEAELRQKESKLQENRKIIEAQRKAIQELQFGNEKVSLKLEEGIQENKDLIKENNATRHLCNLLKETCARSAEKTKKYEYEREETRQVYMDLNNNIEKMITAFEELRVQAENSRLEMHFKLKEDYEKIQHLEQEYKKEINDKEKQVSLLLIQITEKENKMKDLTFLLEESRDKVNQLEEKTKLQSENLKQSIEKQHHLTKELEDIKVSLQRSVSTQKALEEDLQIATKTICQLTEEKETQMEESNKARAAHSFVVTEFETTVCSLEELLRTEQQRLEKNEDQLKILTMELQKKSSELEEMTKLTNNKEVELEELKKVLGEKETLLYENKQFEKIAEELKGTEQELIGLLQAREKEVHDLEIQLTAITTSEQYYSKEVKDLKTELENEKLKNTELTSHCNKLSLENKELTQETSDMTLELKNQQEDINNNKKQEERMLKQIENLQETETQLRNELEYVREELKQKRDEVKCKLDKSEENCNNLRKQVENKNKYIEELQQENKALKKKGTAESKQLNVYEIKVNKLELELESAKQKFGEITDTYQKEIEDKKISEENLLEEVEKAKVIADEAVKLQKEIDKRCQHKIAEMVALMEKHKHQYDKIIEERDSELGLYKSKEQEQSSLRASLEIELSNLKAELLSVKKQLEIEREEKEKLKREAKE",2 SYCP1 chains in the complex with SYCE3,stoichiometry N [5]: 4
2 SYCP1 chains per SYCE3 chain,"SYCE3 α1-α2 (amino-acids 12-88) (domain or fragment, human, UniProt A1L190 12-88, looked up, SYCE3 α1-α2, amino-acids 12-88; source: E. coli BL21(DE3), co-purified with SYCP1αNcore; not shown: His or His-MBP, N-terminal, cleaved) DNMLKMLSDLNKDLEKLLEEMEKISVQATWMAYDMVVMRTNPTLAESMRRLEDAFVNCKEEMEKNWQELLHETKQRL",,
,B3,2 SYCP1 chains in the 2:1 complex with SYCE3 and 4 SYCP1 chains in the 4:2 complex with SYCE3,
,B4,2 SYCP1 chains in the 2:1 complex with SYCE3 and 4 SYCP1 chains in the 4:2 complex with SYCE3,
,"SYCP1αN V105E L109E (domain or fragment, human, UniProt Q15431 101-362, looked up, SYCP1αN, amino-acids 101-362, with V105E L109E; source: E. coli BL21(DE3), in complex with SYCE3) GLSREYSKEYKEAEKIKKWKVSTEAELRQKESKLQENRKIIEAQRKAIQELQFGNEKVSLKLEEGIQENKDLIKENNATRHLCNLLKETCARSAEKTKKYEYEREETRQVYMDLNNNIEKMITAFEELRVQAENSRLEMHFKLKEDYEKIQHLEQEYKKEINDKEKQVSLLLIQITEKENKMKDLTFLLEESRDKVNQLEEKTKLQSENLKQSIEKQHHLTKELEDIKVSLQRSVSTQKALEEDLQIATKTICQLTEEKETQ",2 SYCP1 chains in the complex with SYCE3,
